One experiment addresses T1, 1-27 CD3-Fc (human).
T1 construct: aa 1-27 of mature human CD3 epsilon, hinge and Fc gamma of human IgG1, His6; also called human CD3 epsilon (aa 1-27)-Fc fusion protein; 27 aa huCD3E
Briefly: ELISA on captured 1-27 CD3-Fc. For orientation: An ELISA detects its analyte on a solid surface through an enzyme-linked reagent.

Experiment [1] addresses T2, 1-27 CD3-EpCAM comprising the human 27 mer (human; cynomolgus).
T2 construct: on transfected cells
T2 chain: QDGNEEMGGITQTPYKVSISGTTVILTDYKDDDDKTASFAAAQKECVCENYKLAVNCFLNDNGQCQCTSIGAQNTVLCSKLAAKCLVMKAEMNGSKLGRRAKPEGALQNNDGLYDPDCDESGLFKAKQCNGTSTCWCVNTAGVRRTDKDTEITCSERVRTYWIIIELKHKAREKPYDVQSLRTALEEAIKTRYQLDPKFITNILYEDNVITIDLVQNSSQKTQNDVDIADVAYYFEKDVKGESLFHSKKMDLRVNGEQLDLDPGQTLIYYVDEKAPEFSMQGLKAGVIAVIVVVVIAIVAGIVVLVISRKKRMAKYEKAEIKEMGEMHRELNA
Briefly: FACS on transfected 293-HEK cells.

In experiment [2] the target is T3, 1-27 CD3-EpCAM comprising the marmoset 27 mer (Callithrix jacchus; cynomolgus).
T3 construct: on transfected cells
T3 chain: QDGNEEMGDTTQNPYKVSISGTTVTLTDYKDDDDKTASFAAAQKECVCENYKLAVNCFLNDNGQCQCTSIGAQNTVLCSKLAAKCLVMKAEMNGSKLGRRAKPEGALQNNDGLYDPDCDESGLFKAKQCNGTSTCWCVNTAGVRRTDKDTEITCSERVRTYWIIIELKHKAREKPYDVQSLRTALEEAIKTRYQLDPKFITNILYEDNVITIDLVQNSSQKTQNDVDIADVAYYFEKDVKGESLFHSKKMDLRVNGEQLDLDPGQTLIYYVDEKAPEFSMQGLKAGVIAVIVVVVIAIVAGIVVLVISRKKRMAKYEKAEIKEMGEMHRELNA
Briefly: FACS on transfected 293-HEK cells.

Experiment [3] deals with T4, 1-27 CD3-EpCAM comprising the squirrel monkey 27 mer (Saimiri sciureus; cynomolgus).
T4 construct: on transfected cells
T4 chain: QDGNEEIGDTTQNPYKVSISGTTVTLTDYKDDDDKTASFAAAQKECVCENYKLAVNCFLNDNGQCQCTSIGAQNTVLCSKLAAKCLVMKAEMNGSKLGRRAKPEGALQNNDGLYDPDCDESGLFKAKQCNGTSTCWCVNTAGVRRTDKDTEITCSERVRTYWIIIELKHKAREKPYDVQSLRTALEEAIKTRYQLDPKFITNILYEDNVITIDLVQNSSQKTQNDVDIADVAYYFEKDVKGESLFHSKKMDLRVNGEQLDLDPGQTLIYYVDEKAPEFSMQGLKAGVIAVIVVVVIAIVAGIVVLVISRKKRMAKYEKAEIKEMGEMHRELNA
The experiment in a line: FACS on transfected 293-HEK cells.

Experiment [4] addresses T5, human CD3 (on the human CD3 positive T cell leukemia cell line HPB-ALL) (human, UniProt P07766 23-207).
T5 construct: whole, on cells; native CD3 complex on T cells; also called human CD3 epsilon
The experiment in a line: FACS on HPB-ALL.

Experiment [5] addresses human FAPalpha (on CHO cells) (human, UniProt Q12884 1-760). The experiment in a line: FACS on CHO cells.
The target in experiment [6] is macaque FAPalpha (on CHO cells) (macaque (Cynomolgus)). The experiment in a line: FACS on CHO cells.
macaque FAPalpha (on CHO cells) (macaque (Cynomolgus)), sequence (chain, as listed by the source): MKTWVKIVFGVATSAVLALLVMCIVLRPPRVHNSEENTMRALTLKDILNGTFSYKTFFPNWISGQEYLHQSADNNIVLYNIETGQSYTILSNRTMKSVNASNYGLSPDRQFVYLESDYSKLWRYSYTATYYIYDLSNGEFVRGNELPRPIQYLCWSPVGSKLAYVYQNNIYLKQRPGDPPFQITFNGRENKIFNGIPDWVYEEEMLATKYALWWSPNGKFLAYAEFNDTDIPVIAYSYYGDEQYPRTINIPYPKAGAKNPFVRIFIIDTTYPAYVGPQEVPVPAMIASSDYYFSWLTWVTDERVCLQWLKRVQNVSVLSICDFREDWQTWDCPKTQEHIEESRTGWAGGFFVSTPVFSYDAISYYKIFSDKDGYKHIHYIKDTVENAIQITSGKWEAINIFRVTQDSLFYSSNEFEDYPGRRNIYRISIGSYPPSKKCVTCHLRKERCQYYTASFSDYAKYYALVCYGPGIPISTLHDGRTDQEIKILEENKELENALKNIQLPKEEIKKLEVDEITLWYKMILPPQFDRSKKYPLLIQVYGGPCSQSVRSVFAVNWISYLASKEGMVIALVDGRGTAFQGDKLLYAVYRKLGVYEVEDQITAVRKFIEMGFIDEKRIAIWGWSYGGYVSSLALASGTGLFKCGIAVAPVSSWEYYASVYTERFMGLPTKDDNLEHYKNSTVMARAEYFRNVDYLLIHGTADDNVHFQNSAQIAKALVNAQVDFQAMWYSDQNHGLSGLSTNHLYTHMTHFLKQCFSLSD

T5 sequence (P07766 23-207): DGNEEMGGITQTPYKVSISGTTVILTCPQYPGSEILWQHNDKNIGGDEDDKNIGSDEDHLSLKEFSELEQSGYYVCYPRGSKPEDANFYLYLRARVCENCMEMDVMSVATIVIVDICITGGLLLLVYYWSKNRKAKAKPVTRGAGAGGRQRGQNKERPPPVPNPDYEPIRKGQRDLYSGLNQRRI

B1: A2J HLP (scFv)
scFv: EVQLLESGGGLVQPGGSLKLSCAASGFTFNVYAMNWVRQAPGKGLEWVARIRSKYNNYATYYADSVKKRFTISRDDSKNTAYLQMNNLKTEDTAVYYCVRHGNFGNSYLSWWAYWGQGTLVTVSSGGGGSGGGGSGGGGSELVVTQEPSLTVSPGGTVTLTCRSSTGAVTSGYYPNWVQQKPGQAPRGLIGATDMRPSGTPARFSGSLLGGKAALTLSGVQPEDEAEYYCALWYSNRWVFGGGTKLTVL
notes: crude periplasmic preparation, Flag and His6 tags
For the molecule B1, the binding result with 1-27 CD3-Fc was “binds”.

B2: E2M HLP (scFv)
scFv: EVQLLESGGGLVQPGGSLKLSCAASGFTFNGYAMNWVRQAPGKGLEWVARIRSKYNNYATYYADSVKERFTISRDDSKNTAYLQMNNLKTEDTAVYYCVRHRNFGNSYLSWFAYWGQGTLVTVSSGGGGSGGGGSGGGGSELVVTQEPSLTVSPGGTVTLTCRSSTGAVTSGYYPNWVQQKPGQAPRGLIGATDMRPSGTPARFSGSLLGGKAALTLSGVQPEDEAEYYCALWYSNRWVFGGGTKLTVL
notes: as for B1
On to B2, for which the binding result (in the experiment with 1-27 CD3-Fc; in experiment [1]; in experiment [2]; in experiment [3]) was “binds” each time.

B3: MCSP-G4 HLP x E2M HLP (bispecific antibody)
chain: QVQLVQSGAEVKRPGASMKVSCKASGYTFTNYYIHWVRQAPGQGLEWMGWINPNSGATNYAQKFQGRVTMTRDTSTSTVYMELSSLRSEDTAVYYCAKSWVSWFASWGQGTLVTVSSGGGGSGGGGSGGGGSELVMTQSPDSLAVSLGERATINCKSSQSVLNSSNNRNYLAWYQQKPGQPPKLLIYWASTRESGVPDRFSGSGSGTDFTLTISGLQAEDVAVYYCQQHYSTPFTFGPGTKVDIKSGGGGSEVQLLESGGGLVQPGGSLKLSCAASGFTFNGYAMNWVRQAPGKGLEWVARIRSKYNNYATYYADSVKERFTISRDDSKNTAYLQMNNLKTEDTAVYYCVRHRNFGNSYLSWFAYWGQGTLVTVSSGGGGSGGGGSGGGGSELVVTQEPSLTVSPGGTVTLTCRSSTGAVTSGYYPNWVQQKPGQAPRGLIGATDMRPSGTPARFSGSLLGGKAALTLSGVQPEDEAEYYCALWYSNRWVFGGGTKLTVL
notes: C-terminal His6 tag added
Take B3: in experiment [4], the binding result is “binds”.

B4: 86D2HL (scFv)
scFv: EVQLLESGGGLVQPGGSLKLSCAASGFDFSTYWMSWVRQAPGKGLEWIGEINPDSSTINYTPSLKDKFIISRDNAKNTLYLQMNKVRSEDTALYYCAGGYYRYPYYYTMDYWGQGTTVTVSSGGGGSGGGGSGGGGSELVMTQSPASLSASVGETVTITCRASGNIHNYLAWYQQKQGKSPQLLVYNAKTLADGVPSRFSGSGSGTQYSLKINSLQPEDFGSYYCQHFWSTPYTFGGGTKLEIK
notes: periplasmic preparation
On to B4, for which the binding result in experiment [5] and in experiment [6] was “binds” in each case.

B5: 86D6HL (scFv)
scFv: EVQLLESGGGLVQPGGSLKLSCAASGFDFSTYWMSWVRQAPGKGLEWIGEINPDSSTINYTPSLKDKFIISRDNAKNTLYLQMTKVRPEDTALYYCAGGYYRYPYYYTMDYWGQGTTVTVSSGGGGSGGGGSGGGGSELVMTQSPASLSASVGETVTITCRASGSIHNYLAWYQQKQGKSPQLLVYNAKTLADGVPSRFSGSGSGTQYSLKINSLQPEDFGSYYCQHFWSTPYTFGGGTKLEIK
notes: periplasmic preparation
Turning to B5, the binding result in experiment [5] and in experiment [6] was “binds” in each case.

B6: 87G9HL (scFv)
scFv: EVQLLESGGGLVQPGGSLKLSCAASGFDFSRYWMSWVRQAPGKGLEWIGEINPDSSTINYTPSLKDKFIISRDNAKNTLYLQMSKVRSEDTALYYCAGGYYRYPYYYTMDYWGQGTTVTVSSGGGGSGGGGSGGGGSELVMTQSPASLSASVGETVTITCRASGNIHNYLAWYQQKQGKSPQLLVYNAKTLADGVPSRFSGSGSGTQYSLKINSLQPEDFGSYYCQHFWSTPYTFGGGTKLEIK
notes: periplasmic preparation
As for B6, the binding result in experiment [5] and in experiment [6] was “binds” in each case.

B7: 86C12HL (scFv)
scFv: EVQLLESGGGLVQPGGSLKLSCAASGFDFSRSWMSWVRQAPGKGLEWIGEINPDSSTINYTPSLKDKFIISRDNAKNTLYLQMSKVRSEDTALYYCAGGYYRYPYYYTMDYWGQGTTVTVSSGGGGSGGGGSGGGGSELQMTQSPASLSASVGETVTITCRASGNIHNYLAWYQQKQGKSPQLLVYNAKTLADGVPSRFSGSGSGTQYSLKINSLQPEDFGSYYCQHFWSTPYTFGGGTKLEIK
notes: periplasmic preparation
As for B7, the binding result in experiment [5] and in experiment [6] was “binds” in each case.

B8: 86F12HL (scFv)
scFv: EVQLLESGGGLVQPGGSLNLSCAASGFDFSTYWMSWVRQAPGKGLEWIGEINPDSSTINYTPSLKDKFIISRDNAKNTLYLQMNKVRSDDTALYYCAGGYYRYPYYYTMDYWGQGTTVTVSSGGGGSGGGGSGGGGSELQMTQSPASLSASVGETVTITCRASGNIHNYLAWYQQKQGKSPQLLVYNAKTLADGVPSRFSGSGSGTQYSLKINSLQPEDFGSYYCQHFWSTPYTFGGGTKLEIK
notes: periplasmic preparation
For the molecule B8, the binding result in experiment [5] and in experiment [6] was “binds” throughout.

B9: 86F2HL (scFv)
scFv: EVQLLESGGGLVQPGGSLKLSCAASGFDFSTYWMSWVRQAPGKGLEWIGEINPDSSTVNYTPSLKDKFIISRDNAKNTLYLQMTKVRSEDTALYYCAGGYYRYPYYYTMDYWGQGTTVTVSSGGGGSGGGGSGGGGSELQMTQSPASLSASVGETVTITCRASGNIHNYLAWYQQKQGKSPQLLVYNAKTLADGVPSRFSGSGSGTQYSLKINSLQPEDFGSYYCQHFWSTPYTFGGGTKLEIK
notes: periplasmic preparation
Take B9: the binding result in experiment [5] and in experiment [6] was “binds” throughout.

B10: 86F10HL (scFv)
scFv: EVQLLESGGGLVQPGGSLKLSCAASGFDFSTYWMSWVRQAPGKGLEWIGEINPDSSTINYTPSLKDKFIISRDNAKNTLYLQMNKVRSDDTALYYCAGGYYRYPYYYTMDYWGQGTTVTVSSGGGGSGGGGSGGGGSELVMTQSPSSLSASVGETVTITCRASGNIHNYLAWYQQKQGKSPQLLVYNAKTLADGVPSRFSGSGSGTQYSLKINSLQPEDFGSYYCQHFWSTPYTFGGGTKLEIK
notes: periplasmic preparation
Take B10: the binding result in experiment [5] and in experiment [6] was “binds” throughout.

B11: 86E5HL (scFv)
scFv: EVQLLESGGGLVQPGGSLKLSCAASGFDFSRSWMSWVRQAPGKGLEWIGEINPDSSTINYTPSLKDKFIISRDNAKNTLYLQMSKVRSEDTALYYCAGGYYRYPYYYTMDYWGQGTTVTVSSGGGGSGGGGSGGGGSELQMTQSPASLSASVGETVTITCRASENIYSYLAWYQQKQGKSPQLLVYNAKTLAEGVPSRFSGSGSRTQYSLKINSLQPEDFGSYYCQHFWSTPYTFGGGTKLEIK
notes: periplasmic preparation
In the case of B11, the binding result in experiment [5] and in experiment [6] was “binds” in each case.
